Reference: patent publication US20080286264A1 (Dana-Farber, published 2008)

Target: p53(293-393) (human, UniProt P04637 293-393)
Assay: co-IP with anti-p53 from transfected U2OS cells, immunoblot with anti-MUC1 C-ter

Chain of p53(293-393) (P04637 293-393): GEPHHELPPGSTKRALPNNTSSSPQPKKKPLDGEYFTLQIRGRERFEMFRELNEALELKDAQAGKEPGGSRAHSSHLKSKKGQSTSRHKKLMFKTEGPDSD

B1: Myc-MUC1-CD(1-72) (other)
chain: CQCRRKNYGQLDIFPARDTYHPMSEYPTYHTHGRYVPPSSTDRSPYEKVSAGNGGSSLSYTNPAVAATSANL
notes: Transiently expressed in U2OS cells; not shown: Myc tag
  binding result: binds
